In PMC10978878 one finds stoichiometry N (chains per oligomer) data, which are given here for two substances.

The target of assay [1] is BA.2.12.1 spike, recombinant trimer that retains the native sequence (SARS-CoV-2) (UniProt P0DTC2). Briefly: cryo-EM structure.
Assay [2] concerns the target BA.4 spike, recombinant trimeric S-twin-Strep, prefusion stabilized (SARS-CoV-2) (UniProt P0DTC2). As to the kind of experiment: cryo-EM structure.

On to “BA.2.12.1 spike, recombinant trimer that retains the native sequence (from UniProt P0DTC2) (natural protein)”, for which the stoichiometry N (chains per oligomer) in assay [1] is 3.
Take “BA.4 spike, recombinant trimeric S-twin-Strep, prefusion stabilized (from UniProt P0DTC2 28-1147) (natural protein)”: the stoichiometry N (chains per oligomer) in assay [2] is 3.
